Data published in patent US20220372155A1 (LYVGEN BIOPHARMA, published 2022).

T1: human B7H4 expressed on CHO cells (human, UniProt Q7Z7D3 25-282)
T1 construct: whole, on cells; also called VCTN1
T1 sequence (looked up): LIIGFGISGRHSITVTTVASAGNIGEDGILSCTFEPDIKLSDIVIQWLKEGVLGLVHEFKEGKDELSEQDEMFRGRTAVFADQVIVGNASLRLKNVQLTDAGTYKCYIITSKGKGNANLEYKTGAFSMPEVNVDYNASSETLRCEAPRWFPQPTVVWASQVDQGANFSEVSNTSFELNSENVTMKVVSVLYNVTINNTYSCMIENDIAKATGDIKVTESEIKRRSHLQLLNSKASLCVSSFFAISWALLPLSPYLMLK

B1: Ly489 (bispecific antibody, human IgG1, kappa)
heavy: EVQLVESGGGLVKPGGSLKLSCAASGFTFSDSGMHWVRQAPEKGLEWITYINSGSSTIYYADSVKGRFTISRDNAKNTLFLQMTSLRSEDTAMYYCARGRGYAMDYWGQGTSVTVSSASTKGPSVFPLAPSSKSTSGGTAALGCLVKDYFPEPVTVSWNSGALTSGVHTFPAVLQSSGLYSLSSVVTVPSSSLGTQTYICNVNHKPSNTKVDKKVEPKSCDKTHTCPPCPAPELLGPSVFLFPPKPKDTLMISRTPEVTCVVVDVSHEDPEVKFNWYVDGVEVHNAKTKPREEQYNSTYRVVSVLTVLHQDWLNGKEYKCKVSNKALPAPIEKTISKAKGQPREPQVYTLPPSREEMTKNQVSLTCLVKGFYPSDIAVEWESNGQPENNYKTTPPVLDSDGSFFLYSKLTVDKSRWQQGNVFSCSVMHEALHNHYTQKSLSLSPGK
light: EIVLTQSPTTMAASPGEKITIFCSASSSISSDFLHWYQQKPGFSPKLLIYRISNLASGVPARFSGSGSGTSYSLTIGTMEAEDVATYYCQQGSNVPRTFGGGTKLEIKRTVAAPSVFIFPPSDEQLKSGTASVVCLLNNFYPREAKVQWKVDNALQSGNSQESVTEQDSKDSTYSLSSTLTLSKADYEKHKVYACEVTHQGLSSPVTKSFNRGECGGGGSGGGGSGGGGSGGGGSQVQLVESGGGLVQPGGSLKLSCATSGFNFNDYFMNWVRQASGKGLEWVGQIRNKNYNYATYYTESLEGRVTISRDDSKNTAYLQMNSLKTEDTAVYYCTSYYYDGFADYFDYWGQGTTVTVSSGGGGSGGGGSGGGGSGGGGSDIQMTQSPSSLSASVGDRVTITCKASQNIYIYLNWYQQKPGKAPKLLIYNTNNLQTGVPSRFSGSGSGTDFTLTISSLQPEDFATYYCLQHSSRRTFGGGTKVEIK
notes: Ly366 HC (IgG1 mutated Fc) + Ly366 LC-TM740 scFv VH-VL
B2: Ly496 (bispecific antibody, human IgG1, kappa)
heavy: B1 heavy
light: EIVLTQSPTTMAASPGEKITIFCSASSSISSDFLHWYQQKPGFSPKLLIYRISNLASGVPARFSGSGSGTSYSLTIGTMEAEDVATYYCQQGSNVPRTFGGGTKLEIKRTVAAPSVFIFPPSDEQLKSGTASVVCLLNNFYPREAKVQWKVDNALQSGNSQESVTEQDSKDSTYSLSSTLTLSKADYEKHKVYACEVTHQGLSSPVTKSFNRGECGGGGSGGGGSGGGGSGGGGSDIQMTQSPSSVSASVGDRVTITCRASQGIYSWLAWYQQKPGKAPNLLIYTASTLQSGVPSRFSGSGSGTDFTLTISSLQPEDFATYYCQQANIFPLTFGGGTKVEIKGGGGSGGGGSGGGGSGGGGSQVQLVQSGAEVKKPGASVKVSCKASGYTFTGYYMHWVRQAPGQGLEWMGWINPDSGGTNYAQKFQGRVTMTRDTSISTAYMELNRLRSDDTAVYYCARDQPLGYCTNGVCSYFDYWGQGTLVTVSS
notes: Ly366 HC (IgG1 mutated Fc) + Ly366 LC-Ly253 scFv VL-VH
B3: Ly493 (bispecific antibody, human IgG1, kappa)
heavy: B1 heavy
light: EIVLTQSPTTMAASPGEKITIFCSASSSISSDFLHWYQQKPGFSPKLLIYRISNLASGVPARFSGSGSGTSYSLTIGTMEAEDVATYYCQQGSNVPRTFGGGTKLEIKRTVAAPSVFIFPPSDEQLKSGTASVVCLLNNFYPREAKVQWKVDNALQSGNSQESVTEQDSKDSTYSLSSTLTLSKADYEKHKVYACEVTHQGLSSPVTKSFNRGECGGGGSGGGGSGGGGSGGGGSEVQLVESGGGLVQPGGSLRLSCAASGFTFTNYGLHWVRQAPGKGLEWVSSISPSGGVTYYRDSVKGRFTISRDNSKNTLYLQMNSLRAEDTAVYYCAKPFLGWGGANWIAHWGQGTLVTVSSGGGGSGGGGSGGGGSGGGGSDIQMTQSPSSLSASVGDRVTITCLASEDISNDLAWYQQKPGKAPKLLIYFVDRLLDGVPSRFSGSGSGTDFTLTISSLQPEDFATYYCQQSYKYPPTFGQGTKLEIK
notes: Ly366 HC (IgG1 mutated Fc) + Ly366 LC-TM559 scFv VH-VL
B4: Ly497 (bispecific antibody, human IgG1, kappa)
heavy: B1 heavy
light: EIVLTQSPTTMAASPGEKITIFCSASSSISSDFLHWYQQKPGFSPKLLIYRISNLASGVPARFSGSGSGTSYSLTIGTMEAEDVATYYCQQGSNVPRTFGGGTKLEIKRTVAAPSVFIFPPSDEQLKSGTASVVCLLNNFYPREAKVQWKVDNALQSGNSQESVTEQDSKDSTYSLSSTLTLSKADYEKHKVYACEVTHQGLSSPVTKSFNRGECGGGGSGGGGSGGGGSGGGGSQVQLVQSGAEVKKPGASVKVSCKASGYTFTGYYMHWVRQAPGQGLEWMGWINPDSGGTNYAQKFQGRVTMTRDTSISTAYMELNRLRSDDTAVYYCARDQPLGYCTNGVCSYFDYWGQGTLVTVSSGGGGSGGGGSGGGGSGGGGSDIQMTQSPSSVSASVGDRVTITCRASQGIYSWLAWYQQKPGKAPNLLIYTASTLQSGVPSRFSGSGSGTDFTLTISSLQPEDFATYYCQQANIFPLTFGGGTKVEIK
notes: Ly366 HC (IgG1 mutated Fc) + Ly366 LC-Ly253 scFv VH-VL
B5: Ly492 (bispecific antibody, human IgG1, kappa)
heavy: B1 heavy
light: EIVLTQSPTTMAASPGEKITIFCSASSSISSDFLHWYQQKPGFSPKLLIYRISNLASGVPARFSGSGSGTSYSLTIGTMEAEDVATYYCQQGSNVPRTFGGGTKLEIKRTVAAPSVFIFPPSDEQLKSGTASVVCLLNNFYPREAKVQWKVDNALQSGNSQESVTEQDSKDSTYSLSSTLTLSKADYEKHKVYACEVTHQGLSSPVTKSFNRGECGGGGSGGGGSGGGGSGGGGSDIQMTQSPSSLSASVGDRVTITCLASEDISNDLAWYQQKPGKAPKLLIYFVDRLLDGVPSRFSGSGSGTDFTLTISSLQPEDFATYYCQQSYKYPPTFGQGTKLEIKGGGGSGGGGSGGGGSGGGGSEVQLVESGGGLVQPGGSLRLSCAASGFTFTNYGLHWVRQAPGKGLEWVSSISPSGGVTYYRDSVKGRFTISRDNSKNTLYLQMNSLRAEDTAVYYCAKPFLGWGGANWIAHWGQGTLVTVSS
notes: Ly366 HC (IgG1 mutated Fc) + Ly366 LC-TM559 scFv VL-VH
B6: Ly474 (bispecific antibody, human IgG1, kappa)
heavy: EVQLVESGGDLVKPGGSLKLSCAASGFTFSSYGMSWVRQTPDKRLEWVAAISTGGSYTYYPDSVKGRFTISRDTATNTLYLQMSTLKSEDTAMYYCTRRGATGSWFAYWGQGTLVTVSAASTKGPSVFPLAPSSKSTSGGTAALGCLVKDYFPEPVTVSWNSGALTSGVHTFPAVLQSSGLYSLSSVVTVPSSSLGTQTYICNVNHKPSNTKVDKKVEPKSCDKTHTCPPCPAPELLGPSVFLFPPKPKDTLMISRTPEVTCVVVDVSHEDPEVKFNWYVDGVEVHNAKTKPREEQYNSTYRVVSVLTVLHQDWLNGKEYKCKVSNKALPAPIEKTISKAKGQPREPQVYTLPPSREEMTKNQVSLTCLVKGFYPSDIAVEWESNGQPENNYKTTPPVLDSDGSFFLYSKLTVDKSRWQQGNVFSCSVMHEALHNHYTQKSLSLSPGGGGGSGGGGSGGGGSGGGGSDIQMTQSPSSLSASVGDRVTITCKASQNIYIYLNWYQQKPGKAPKLLIYNTNNLQTGVPSRFSGSGSGTDFTLTISSLQPEDFATYYCLQHSSRRTFGGGTKVEIKGGGGSGGGGSGGGGSGGGGSQVQLVESGGGLVQPGGSLKLSCATSGFNFNDYFMNWVRQASGKGLEWVGQIRNKNYNYATYYTESLEGRVTISRDDSKNTAYLQMNSLKTEDTAVYYCTSYYYDGFADYFDYWGQGTTVTVSS
light: DILMTQSPSSMSVSLGDTVSITCHASQGINNNIGWLQRKPGKSFKGLIYHGTNLEDGVPSRFSGSGSGADYSLTISSLESEDFADYYCVQYVQFPRTFGGGTKLEIKRTVAAPSVFIFPPSDEQLKSGTASVVCLLNNFYPREAKVQWKVDNALQSGNSQESVTEQDSKDSTYSLSSTLTLSKADYEKHKVYACEVTHQGLSSPVTKSFNRGEC
notes: Ly361 HC (IgG1 mutated Fc)-TM740 scFv VL-VH + Ly361 LC
B7: Ly817 (bispecific antibody, human IgG1, kappa)
heavy: QVTLKESGPALVKPTQTLTLTCTFSGFSLSTSGTCVSWIRQPPGKALEWLATICWEDSKGYNPSLKSRLTISKDTSKNQAVLTMTNMDPVDTATYYCARREDSGYFWFPYWGQGTLVTVSSASTKGPSVFPLAPSSKSTSGGTAALGCLVKDYFPEPVTVSWNSGALTSGVHTFPAVLQSSGLYSLSSVVTVPSSSLGTQTYICNVNHKPSNTKVDKKVEPKSCDKTHTCPPCPAPELLGPSVFLFPPKPKDTLMISRTPEVTCVVVDVSHEDPEVKFNWYVDGVEVHNAKTKPREEQYNSTYRVVSVLTVLHQDWLNGKEYKCKVSNKALPAPIEKTISKAKGQPREPQVYTLPPSREEMTKNQVSLTCLVKGFYPSDIAVEWESNGQPENNYKTTPPVLDSDGSFFLYSKLTVDKSRWQQGNVFSCSVMHEALHNHYTQKSLSLSPGK
light: NIQMTQSPSSLSASVGDRVTITCKAGQNVNNYLAWYQQKPGKAPKVLIFNANSLQTGVPSRFSGSGSGTDFTLTISSLQPEDFATYYCQQYNSWPTFGGGTKVEIKRTVAAPSVFIFPPSDEQLKSGTASVVCLLNNFYPREAKVQWKVDNALQSGNSQESVTEQDSKDSTYSLSSTLTLSKADYEKHKVYACEVTHQGLSSPVTKSFNRGECGGGGSGGGGSGGGGSGGGGSDIQMTQSPSSLSASVGDRVTITCKASQNIYIYLNWYQQKPGKAPKLLIYNTNNLQTGVPSRFSGSGSGTDFTLTISSLQPEDFATYYCLQHSSRRTFGGGTKVEIKGGGGSGGGGSGGGGSGGGGSQVQLVESGGGLVQPGGSLKLSCATSGFNFNDYFMNWVRQASGKGLEWVGQIRNKNYNYATYYTESLEGRVTISRDDSKNTAYLQMNSLKTEDTAVYYCTSYYYDGFADYFDYWGQGTTVTVSS
notes: Ly516 HC (IgG1 mutated Fc) + Ly516 LC-TM740 scFv VL-VH
B8: Ly819 (bispecific antibody, human IgG1, kappa)
heavy: B7 heavy
light: NIQMTQSPSSLSASVGDRVTITCKAGQNVNNYLAWYQQKPGKAPKVLIFNANSLQTGVPSRFSGSGSGTDFTLTISSLQPEDFATYYCQQYNSWPTFGGGTKVEIKRTVAAPSVFIFPPSDEQLKSGTASVVCLLNNFYPREAKVQWKVDNALQSGNSQESVTEQDSKDSTYSLSSTLTLSKADYEKHKVYACEVTHQGLSSPVTKSFNRGECGGGGSGGGGSGGGGSGGGGSDIQMTQSPSSLSASVGDRVTITCLASEDISNDLAWYQQKPGKAPKLLIYFVDRLLDGVPSRFSGSGSGTDFTLTISSLQPEDFATYYCQQSYKYPPTFGQGTKLEIKGGGGSGGGGSGGGGSGGGGSEVQLVESGGGLVQPGGSLRLSCAASGFTFTNYGLHWVRQAPGKGLEWVSSISPSGGVTYYRDSVKGRFTISRDNSKNTLYLQMNSLRAEDTAVYYCAKPFLGWGGANWIAHWGQGTLVTVSS
notes: Ly516 HC (IgG1 mutated Fc) + Ly516 LC-TM559 scFv VL-VH
B9: Ly818 (bispecific antibody, human IgG1, kappa)
heavy: B7 heavy
light: NIQMTQSPSSLSASVGDRVTITCKAGQNVNNYLAWYQQKPGKAPKVLIFNANSLQTGVPSRFSGSGSGTDFTLTISSLQPEDFATYYCQQYNSWPTFGGGTKVEIKRTVAAPSVFIFPPSDEQLKSGTASVVCLLNNFYPREAKVQWKVDNALQSGNSQESVTEQDSKDSTYSLSSTLTLSKADYEKHKVYACEVTHQGLSSPVTKSFNRGECGGGGSGGGGSGGGGSGGGGSQVQLVESGGGLVQPGGSLKLSCATSGFNFNDYFMNWVRQASGKGLEWVGQIRNKNYNYATYYTESLEGRVTISRDDSKNTAYLQMNSLKTEDTAVYYCTSYYYDGFADYFDYWGQGTTVTVSSGGGGSGGGGSGGGGSGGGGSDIQMTQSPSSLSASVGDRVTITCKASQNIYIYLNWYQQKPGKAPKLLIYNTNNLQTGVPSRFSGSGSGTDFTLTISSLQPEDFATYYCLQHSSRRTFGGGTKVEIK
notes: Ly516 HC (IgG1 mutated Fc) + Ly516 LC-TM740 scFv VH-VL

molecular target: T1, human B7H4 expressed on CHO cells; assay: FACS, CHO cells

Row | binding result | Binder
1 | binds | B1
2 | binds | B2
3 | binds | B3
4 | binds | B4
5 | binds | B5
6 | binds | B6

molecular target: T2, human CD40 expressed on CHO cells (human, UniProt P25942 21-277); assay: FACS, CHO cells
T2 construct: whole, on cells; also used for the reporter cells over-expressing human CD40; also called cellular CD40; CHO-CD40 cells
T2 sequence (P25942 21-277): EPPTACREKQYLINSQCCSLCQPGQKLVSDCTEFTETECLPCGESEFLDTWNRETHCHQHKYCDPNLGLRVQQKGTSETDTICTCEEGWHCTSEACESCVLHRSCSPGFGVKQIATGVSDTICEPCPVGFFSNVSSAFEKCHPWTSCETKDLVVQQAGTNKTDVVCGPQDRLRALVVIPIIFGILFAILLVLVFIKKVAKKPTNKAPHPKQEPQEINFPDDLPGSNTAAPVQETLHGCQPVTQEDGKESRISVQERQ

Row | binding result | Binder
7 | binds | B1
8 | binds | B2
9 | binds | B3
10 | binds | B4
11 | binds | B5
12 | binds | B7
13 | binds | B8
14 | binds | B9
15 | binds | B6

molecular target: T3, human PD-1 expressed on CHO cells (human, UniProt Q15116 25-288); assay: FACS, CHO cells
T3 construct: whole, on cells; also used for human PD-1 on Jurkat reporter cells; also called Jurkat/NFkB-Luci/PD-1 cells
T3 sequence (Q15116 25-288): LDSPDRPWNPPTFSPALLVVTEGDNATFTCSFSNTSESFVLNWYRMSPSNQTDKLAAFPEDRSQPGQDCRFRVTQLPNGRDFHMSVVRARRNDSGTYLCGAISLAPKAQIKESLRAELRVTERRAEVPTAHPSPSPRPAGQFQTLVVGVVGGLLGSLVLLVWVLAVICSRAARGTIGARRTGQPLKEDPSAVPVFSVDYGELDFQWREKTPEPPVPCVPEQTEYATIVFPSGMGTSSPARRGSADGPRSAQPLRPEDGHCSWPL

Row | binding result | Binder
16 | binds | B7
17 | binds | B8
18 | binds | B9
